Measurements taken from the nanobody polyreactivity screen of Harvey et al. (2022).

experiment: yeast display, Sf9 membrane polyspecificity reagent, FACS + sequencing; frameworks hold sequencing errors
How it was run: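 A nanobody's polyreactivity label depends on the gate it was sorted from. Yeast display cells were stained with 10% biotinylated, detergent-solubilized Sf9 membrane reagent for 1 hour at 4 °C, enriched on streptavidin microbeads and sorted by FACS. The low and high (top ~1%) gates were set on anti-HA fluorescence for expression and streptavidin fluorescence for reagent binding.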

Sequence | polyreactivity (PSR sort gate)
QVQLVESGGGIVQAGGSLRLSCAASGSTFVGNAMGWSRQAPGKERELVAAISRTGGSTYYADSVKGRFTISRDNEKNTVYLQMNSLIPEDSAVYYCNAYTRYSSRRGIGDSWGQGTQVTVSS | high polyreactivity
QVQLVESGGGIVQAGGSLRLSCAASGSTFVIYTMGWYRPAPGKERELVAAISWSGGITRYADSVKGRFTISRDNAKNTVYLQMNSLKPEDSAVYYCNASQWPSRFDYWGQGTQVTVSS | low polyreactivity
QVQLVESGGGIVQAGGSLRLSCAASGSTFYSYAMGFYRQAPGKERELVAAISWDGGRTYYADSVKGRFTISRDNAKNTVYLQMNSLKPEDTAVYYCAAAYPTYRHYYWGQGTQVTVSS | low polyreactivity
QVQLVESGGGIVQAGGSLRLSCAASGSTIDHYTMGWYSQAPGKERELVAAINRIGDSTYYADSVKGRFTISRDNAKNTVYLQMYSVNPEDTAVYYCAARHVPRFKNYGYWGQGTQVTVSS | high polyreactivity
QVQLVESGGGIVQAGGSLRLSCAASGSTIGGYAMGWYRQAPGKERELVAAIRRSGDSTYYADSVKGRFTISRDNAKNTVYLQMNSLKPEDTAVYYCNTDRTHSYQYGGYDYWGQGTQVTVSS | low polyreactivity
QVQLVESGGGIVQAGGSLRLSCAASGSTIRYYAMGWYRQAPGKERELVAAITYSGTRTYYADSVKGRFTISRDNAKTTVYLQMNSLKPEDTAVYYCNAVAKHRGVGIYTPYDYWGQGTQVTVSS | high polyreactivity
QVQLVESGGGIVQAGGSLRLSCAASGSTLNSYVMGWYRQAPGKERELVATIRSGSSTNYADSVKGRFTISRDNAKYPDYLLMNSLKPEDTAVYSCAADAYSLCYDSWGQGTQVTVSS | low polyreactivity
QVQLVESGGGIVQAGGSLRLSCAASVFTFLHNTMGWYRQAPGKERELVAAISIGGRTYYADSVKGRFTISRDIAKKTVYLQMNSLKPEDTAVYYCAKLSGGQSPGYDYWGQGTQVTVSS | high polyreactivity
QVQLVESGGGIVQAGGSLRLSCAATGRIFTGYTMGWYRQAPGKERELVAAISQSGGRTYYADSVKGRFTISRDNAKHTVYLQMNSLKPEDTAVYYCAAVWSRTGYDYCGQGTQVTVSS | high polyreactivity
QVQLVESGGGIVQAGGSLRLSCAGSGSIVSGYTMGWYRQEPGKERELVAAITRSGGRTYYADSVKGRFTISRDYAKNTVYLQMNSLKPEDTSVYYCAAVDRRGANYNYWGQGTQVTVSS | high polyreactivity
QVQLVESGGGIVQAGGSLRLSCDASGSIFNYYTMGWYRQEPGKERELVAAISYRGGRTYYADSVKGRFTISRDNAKNTVYLQMNSLKPEDTAVYYCAAGWLLYVFFPREYYYWGQGTQVTVSS | high polyreactivity
QVQLVESGGGIVQAGGSLRLSSAASGRTFYVYTMGWYRQAPGKERELVAAITSGGSTNYADSVKGRFKISRDNAKNTVYLQMNSLKPEDTAVYYCAARFSTVFKRYYYWGQGTQLTVSS | high polyreactivity
QVQLVESGGGIVQAGGSLRLSWAASGRNFYRNAMGWYRQAPGKERELVAAISRSGGSTYYADSVKGRFTISRDNAKNTVYLQMNSLKAADTAVYYFNAYRYLQSGPPRYREHGSWGQGTQVNVSS | low polyreactivity
QVQLVESGGGIVQAGGSLSLRCAASGRIFITNAMGWNRQAPGKERELVAAIRRRGGNTYYADSVKGRFTISRDNGKNTVYLLMNSLKPEDSAVYYCAVYPRPYNYNYWGQGTQVTVSS | high polyreactivity
QVQLVESGGGIVQAGVSLRLSCAASGSTFWDNDMGWYRPAPGKERELVAVISWDDGSTYYADSVKGRFTISRDNAKNTVYLQMNSLKPEDTAVYYCAADAYYALFPSWTVGDCPYYYWGQGTQVTVSS | high polyreactivity
QVQLVESGGGIVQEGGSLRLSCAASGRTFGLNVMGWYRQAPGKERELVATISWSGGTTYYADSVKGRYTISRDNAKNTVYFQMKSLKPEDTGVYYCNRQVTWYPTGGYWGQGTQVTVSS | low polyreactivity

Sequence | polyreactivity (PSR sort gate)
QVQLVESGGGIVQSGGSLRLSCDASGFIFGGNAMGWYIQAPGKERELVARISSGGITSYADSVKGRFTISRDNAKNTVYLHMNSQKPDDTAVYYCAARNGRIAWMNYWGQGTQVTVSS | low polyreactivity
QVQLVESGGGKVQAGGSLRLSCAASGNTFTSNALGWYRQAPGKERELVAAISISGSTNYADSVKGRFTISRDNAKNSVYLQMNSLKPEDTAVYSCAARVGYTAWRRYNYWGQGTQVTVSS | high polyreactivity
QVQLVESGGGKVQEGGSLRLSCAASGRTLAPYAMGWYRQAPGKERELVAISTIGGTTYYADSVKGRFTISRDNAKNTVYLQMNSLKPEDTAVYYGAADGNSTGVYLDGGEGFAYDYWGQGTQVTVSS | low polyreactivity
QVQLVESGGGLAQAGGSLRLSCAASGLIFYYNAMGWYRQAPGKERELVAAISSSGGRTYYADSVKGRFTISRDNAKNTVYLQMNSLKPEDTAVYYCAATSYGYGSRYDYWGQGTQVTVSS | high polyreactivity
QVQLVESGGGLAQAGGSLRLSCAASGRIFSVNVMGWYRQAPGKERELVAAITWSVGSTYYADSVKGRFTISRDNAKNTVYLQMNSLKPEDTAVFYCAARVPPVYGRVGGYHYWGQGTQVTVSS | low polyreactivity
QVQLVESGGGLDLAGGSLRLSCAASGRTCGYNAMGWYRQAPGKERELVATISWGGGSTYYADSVKGRFTISRDNAKNSVYLQMNSLKPEDTAVYYCNKVHYGRRHSYSGAIYGEDYWGQGTQVTVSS | high polyreactivity
QVQLVESGGGLDPAGGSLRLSCAASGSTFQYNAKGWYRQAPGKERELVAAISGSGGSTYYADSVKGRFTISRDNAKNTVYLQMNSLKPEDTAVYYCNADVSALWWPEEWYNASEFDYWGQGTQVTVSS | low polyreactivity
QVQLVESGGGLDQAEGSLRLSCAASGSKINHYARGWYRQAPRKERELVAAITKSGGSTYADSVKGRFTISRDNAKNTVYLKMNSRKPEDTAVYYCAAGRRIYGTKGRGDYWGQGTQVTVSS | low polyreactivity
QVQLVESGGGLDQAGGRLRLSCAASGFTFNYNAMGWYRQATGKERELVAAISRSGGRTYYADSVKGRFTISRDNAKNTVYLQMNSLKPEDTAVYYCAADSGTNGYDYWGQGTQVTVSS | high polyreactivity
QVQLVESGGGLDQAGGSHRLSCAASGRIFTYNAIGWYRQAPGKERELVAAISRRGGTTYYADSVKGRFTISRDNAKNTVYLQMNSLKPEDTAVYYCAAVVFTRGVTSRTVSRYDYWGQGTLVTVSS | high polyreactivity
QVQLVESGGGLDQAGGSLPLSCAASGLTFSSYAMGWYRQAPGKESELVATITSSGGDNTNYADSVKGRFTISRDNAKNTVYLQMNSLKPEDTAVYYCNKEGQQSYRWRMDYWGQGTQVTVSS | low polyreactivity
QVQLVESGGGLDQAGGSLRLICAASGSTFRYNAMGWYRQAPGKERELVAAISSSGGSTRYADSVKGRFTISRDNAKNTVYLQMNSLKPEDTAVYYCAVRFYDWRYYYWGQGTQVTVSS | high polyreactivity
QVQLVESGGGLDQAGGSLRLICAASGTTFSPYAMGWYRQAPGKQRELGANITISGGSTFYADSVKGRFTISRDYAKNTDYLQMKSLKPEDTAVDYCNADSLIRWLFTVVIFDYCGQGTQVTVSS | low polyreactivity
QVQLVESGGGLDQAGGSLRLSCAACGIIFYVYDMGGYRQAPGKERELVPISGSSTYYADSVKGRFTISRDNAKNSVYLQMNSLKPEDTAVYYWSADGVELYDYWGQGTQVTVSS | low polyreactivity
QVQLVESGGGLDQAGGSLRLSCAASGFIFAYNTMGWYRQAPGKERELVATIRWSGGRTYYADSVKGRFTISRDNAKNSVYLQMNSLKPEDTAVYYCAKRAFSYVGGQQDRKENYYYWGQGTQVTVSS | high polyreactivity
